Experimental data taken from PMC2921341, “Interaction of Serum- and Glucocorticoid Regulated Kinase 1 (SGK1) with the WW-Domains of Nedd4-2 Is Required for Epithelial Sodium Channel Regulation” (PLoS ONE, 2010).

T1: SGK PY-motif peptide (human)
T1 construct: N-terminal cysteine of the printed peptide; stretch of human SGK (SGK1) with the PY motif PPFY (Y298); also called SGK peptide; source: synthetic peptide (Auspep)
T1 peptide: H-CLYGLPPFYSRNT-NH2

B1: Nedd4-2 WW1 (isolated WW-domain, GST removed) (domain or fragment)
chain: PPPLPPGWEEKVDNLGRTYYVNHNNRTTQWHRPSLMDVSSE
B2: Nedd4-2 WW2 (isolated WW-domain, GST removed) (domain or fragment)
chain: not shown
B3: Nedd4-2 WW2-3 (isolated protein, GST removed) (domain or fragment)
chain: TTPGLPSGWEERKDAKGRTYYVNHNNRTTTWTRPIMQLAEDGASGSATNSNNHLIEPQIRRPRSLSSPTVTLSAPLEGAKDSPVRRAVKDTLSNPQSPQPSPYNSPKPQHKVTQSFLPPGWEMRIAPNGRPFFIDHNTKTTTWEDPRLKFPVHM
B4: Nedd4 WW3 (isolated WW-domain, GST removed) (domain or fragment, UniProt P46934 840-873, looked up)
chain: GFLPKGWEVRHAPNGRPFFIDHNTKTTTWEDPRL
notes: Nedd4 WW-domain 3 (a Nedd4 with four WW-domains); also called WW-domain 3 of Nedd4; source: E. coli BL21, GST removed with thrombin or TEV protease, purified (glutathione-Sepharose, Superdex-75)
B5: RNase (enzyme)
chain: KETAAAKFERQHMDSSTSAASSSNYCNQMMKSRNLTKDRCKPVNTFVHESLADVQAVCSQKNVACKNGQTNCYQSYSTMSITDCRETGSSKYPNCAYKTTQANKHIIVACEGNPYVPVHFDASV

Molecular target: T1, SGK PY-motif peptide
Assay: SPR; BIAcore 2000; peptide immobilised on Sensor Chip CM5 by amine chemistry; isolated WW-domains injected at 20 µl/min in HBS-EP; KD estimated from steady state equilibrium responses
Settings: both partners purified

Binder | Kd
B1 | > 600 µM
B2 | 105 µM
DLGPLPPGWEERIHLDGRTFYIDHNSKITQWEDPRLQNPAIT (domain or fragment) [Nedd4-2 WW4 (isolated WW-domain, GST removed)] | > 600 µM
B3 | 53.3 µM
B4 | 130 µM
B5 | > 600 µM
